Source: paper PMC4731217, “Mutations in Mtr4 Structural Domains Reveal Their Important Role in Regulating tRNAiMet Turnover in Saccharomyces cerevisiae and Mtr4p Enzymatic Activities In Vitro”

Experiments:
[1] = target: T1, Mtr4p-P731S (Saccharomyces cerevisiae, UniProt P47047 1-1073, P731S); assay: EMSA; no ATP or Mg2+ listed; 1 mM EDTA; EMSA: 0.5 nM RNA, 10 mM Tris pH 7.5, 1 mM EDTA, 100 mM KCl, 0.1 mM DTT, 5% glycerol, 1% NP40, on ice 30 min; 5% native PAGE at 4 C; conditions: protein: recombinant; tags: His (His60 Ni purification); label: 5' 32P on R4 (top strand); 16 bp duplex, 3' overhang 6 nt on R1
T1 sequence: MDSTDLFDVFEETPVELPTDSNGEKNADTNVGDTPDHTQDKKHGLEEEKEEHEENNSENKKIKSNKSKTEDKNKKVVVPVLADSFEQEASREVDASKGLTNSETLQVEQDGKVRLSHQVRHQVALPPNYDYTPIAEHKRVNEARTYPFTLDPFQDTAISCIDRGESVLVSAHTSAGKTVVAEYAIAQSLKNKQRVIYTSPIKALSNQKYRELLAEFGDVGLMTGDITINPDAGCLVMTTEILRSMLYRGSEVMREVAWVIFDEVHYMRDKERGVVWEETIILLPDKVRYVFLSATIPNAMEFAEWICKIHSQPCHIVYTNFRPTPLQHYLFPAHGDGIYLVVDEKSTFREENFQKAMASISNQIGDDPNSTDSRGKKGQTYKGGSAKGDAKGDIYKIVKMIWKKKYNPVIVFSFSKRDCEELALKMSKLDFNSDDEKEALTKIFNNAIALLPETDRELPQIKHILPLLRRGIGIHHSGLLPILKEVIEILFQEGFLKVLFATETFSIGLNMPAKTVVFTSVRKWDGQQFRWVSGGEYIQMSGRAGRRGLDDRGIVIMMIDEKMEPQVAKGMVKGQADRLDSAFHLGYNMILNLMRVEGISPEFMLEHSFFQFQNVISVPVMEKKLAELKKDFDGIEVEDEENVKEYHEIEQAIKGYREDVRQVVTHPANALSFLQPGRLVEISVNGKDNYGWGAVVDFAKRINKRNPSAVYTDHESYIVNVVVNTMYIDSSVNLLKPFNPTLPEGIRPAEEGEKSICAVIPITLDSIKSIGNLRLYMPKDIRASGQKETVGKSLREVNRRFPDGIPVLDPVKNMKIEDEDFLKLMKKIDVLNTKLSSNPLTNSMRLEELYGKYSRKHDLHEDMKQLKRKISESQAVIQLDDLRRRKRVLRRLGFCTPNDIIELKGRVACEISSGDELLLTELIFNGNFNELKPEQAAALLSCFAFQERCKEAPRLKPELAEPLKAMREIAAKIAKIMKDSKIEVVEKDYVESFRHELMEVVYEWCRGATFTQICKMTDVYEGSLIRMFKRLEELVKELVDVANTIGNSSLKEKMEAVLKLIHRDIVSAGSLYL

[2] = target: T2, Mtr4p-K700N (Saccharomyces cerevisiae, UniProt P47047 1-1073, K700N); assay: as above; conditions: protein: recombinant; tags: His (His60 Ni purification); label: 5' 32P on R4 (top strand); 16 bp duplex, 3' overhang 6 nt on R1
T2 sequence: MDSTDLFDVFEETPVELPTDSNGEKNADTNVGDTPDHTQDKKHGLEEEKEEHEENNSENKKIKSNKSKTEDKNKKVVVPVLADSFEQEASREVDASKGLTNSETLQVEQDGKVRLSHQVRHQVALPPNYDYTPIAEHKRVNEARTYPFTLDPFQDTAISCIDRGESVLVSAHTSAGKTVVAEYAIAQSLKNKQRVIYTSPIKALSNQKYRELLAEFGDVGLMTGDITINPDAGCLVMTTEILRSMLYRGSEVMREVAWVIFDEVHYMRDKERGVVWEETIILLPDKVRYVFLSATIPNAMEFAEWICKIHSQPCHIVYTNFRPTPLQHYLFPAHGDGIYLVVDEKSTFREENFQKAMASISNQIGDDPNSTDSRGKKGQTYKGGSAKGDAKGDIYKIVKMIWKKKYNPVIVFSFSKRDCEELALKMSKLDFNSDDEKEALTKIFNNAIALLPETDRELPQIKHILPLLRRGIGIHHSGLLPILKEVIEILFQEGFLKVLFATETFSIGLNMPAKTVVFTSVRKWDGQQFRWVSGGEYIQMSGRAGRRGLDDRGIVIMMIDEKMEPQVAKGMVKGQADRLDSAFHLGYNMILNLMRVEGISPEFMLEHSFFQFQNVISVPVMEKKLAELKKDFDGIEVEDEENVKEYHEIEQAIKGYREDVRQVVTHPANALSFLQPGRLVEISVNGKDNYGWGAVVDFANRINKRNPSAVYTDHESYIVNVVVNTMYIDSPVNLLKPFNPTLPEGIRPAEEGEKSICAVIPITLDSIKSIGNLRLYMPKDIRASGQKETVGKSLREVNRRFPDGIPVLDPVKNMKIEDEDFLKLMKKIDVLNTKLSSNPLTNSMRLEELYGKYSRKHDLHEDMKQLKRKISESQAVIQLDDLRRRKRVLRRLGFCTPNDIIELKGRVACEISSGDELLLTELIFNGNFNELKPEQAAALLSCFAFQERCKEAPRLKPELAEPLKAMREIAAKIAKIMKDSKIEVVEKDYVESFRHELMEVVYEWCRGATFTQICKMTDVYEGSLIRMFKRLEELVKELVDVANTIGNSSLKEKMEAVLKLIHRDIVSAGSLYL

B1: R1-4 RNA duplex (R4 top / R1 bottom) (dsRNA)
RNA 1: AGCACCGUAAAGACGC
RNA 2: GCGUCUUUACGGUGCUAGCUUA
For B1, which binding signal [1] is on record?
The binding signal was ~50 % of wild-type complex.

And the binding signal [2]?
Its binding signal is < 50 % of wild-type complex.
